From patent US20090203140

What was measured:
Experiment in all cases: cell_activity
ZFN 12776 golden = details: pair 75.76 (with 12775), 7 ng mRNA, golden b1 heterozygous embryos
ZFN 13370 notail = details: pair ntl_68 (inferred with 13368), 5 ng mRNA; 16% in pair ntl_78
ZFN 12806 golden = details: pair 04.06 (with 12804), 5 ng mRNA
ZFN 13368 notail = details: pair ntl_68 (inferred 13368 with 13370), 5 ng mRNA, ntl b195 het x wildtype cross
ZFN 12804 golden = details: pair 04.05 (with 12805), 5 ng mRNA; also 32% in pair 04.06
ZFN 12805 golden = details: pair 04.05 (with 12804), 5 ng mRNA
ZFN 12775 golden = details: pair 75.76 (with 12776), 7 ng mRNA, golden b1 heterozygous embryos

Sequence “ATGCACAGCAGGTTATAGACAGCAGAAC (double strand) [golden 12776 target]” has an activity (% embryos with unpigmented eye clones) (ZFN 12776 golden) of 23.
With “GCATTAGGGTCGAGACCGGTGACACTGG (double strand) [no tail 13370 target]” the activity (% no tail-like embryos) (ZFN 13370 notail) was 27.
Sequence “ACCGTCTGGATGAACCACGGCAGGCCCA (double strand) [golden 12806 target]” has an activity (% embryos with unpigmented eye clones) (ZFN 12806 golden) of 32.
“TGTACTCGGTCCTGCTGGATTTTGTGGC (double strand) [no tail 13368 target]” gave an activity (% no tail-like embryos) (ZFN 13368 notail) of 27.
“TTGTTGACGTGGGCTCCCCGGTGGATGT (double strand) [golden 12804 target]” showed an activity (% embryos with unpigmented eye clones) (ZFN 12804 golden) of 32.
“ACCGTCTGGATGAACCACGGCAGGCCCA (double strand) [golden 12805 target]” showed an activity (% embryos with unpigmented eye clones) (ZFN 12805 golden) of 32.
“GTGCAGCGTGCGGCCTGCTGTCCTCTGC (double strand) [golden 12775 target]” gave an activity (% embryos with unpigmented eye clones) (ZFN 12775 golden) of 23.
